Test results published in US20100183625A1, “Treatment of Mucositis with Kallikrein Inhibitors” (Dyax Corp., priority 2009, published 2010).
Where two headings read alike, the source gives them in different places. One block for each molecule: values may come before it.

Experiments:
mouse pKal = target: T1, mouse pKal (Mus musculus, UniProt P26262); assay: Ki,app against mouse pKal; assay type: biochemical
T1 construct: active plasma kallikrein (pkal) has the single polypeptide chain cleaved at a single position
T1 sequence (P26262 391-638 limits assumed): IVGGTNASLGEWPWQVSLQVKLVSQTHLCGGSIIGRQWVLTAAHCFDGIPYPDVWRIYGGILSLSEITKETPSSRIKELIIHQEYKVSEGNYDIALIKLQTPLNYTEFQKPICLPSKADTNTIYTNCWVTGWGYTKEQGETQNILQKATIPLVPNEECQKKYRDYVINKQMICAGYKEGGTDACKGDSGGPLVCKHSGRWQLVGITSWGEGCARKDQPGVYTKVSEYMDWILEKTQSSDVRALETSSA
T1 sequence (P26262 20-390 partner limits assumed): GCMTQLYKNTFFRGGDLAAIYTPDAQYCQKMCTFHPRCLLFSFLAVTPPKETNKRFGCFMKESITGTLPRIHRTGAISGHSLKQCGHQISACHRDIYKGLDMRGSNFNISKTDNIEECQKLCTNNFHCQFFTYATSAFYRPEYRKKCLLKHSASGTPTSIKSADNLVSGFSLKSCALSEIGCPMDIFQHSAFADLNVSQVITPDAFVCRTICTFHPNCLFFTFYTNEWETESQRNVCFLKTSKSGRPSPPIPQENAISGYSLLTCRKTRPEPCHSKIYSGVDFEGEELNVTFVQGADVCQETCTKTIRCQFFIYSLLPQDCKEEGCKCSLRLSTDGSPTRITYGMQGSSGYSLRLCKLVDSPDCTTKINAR
Description: (§1) Fourth, antibodies were tested for their ability to inhibit pKal from other species, besides human, where the amino acid sequence of pKal has been determined in order to identify amino acids that may account for the differences in inhibition.
Antibodies that inhibit the activity of pKal either bind near the active site and preclude substrate interactions (competitive inhibitors) or that bind away from the active site and induce allosteric changes in the structure of the active site (noncompetitive inhibitors).

[1] = target: T2, human plasma kallikrein (human pKal) (Homo sapiens, UniProt P03952); assay: Ki,app against human pKal by steady state enzyme kinetics (in vitro protease cleavage assay, Pro-Phe-Arg-aminomethylcoumarin substrate); assay type: biochemical
T2 construct: two disulfide linked polypeptides; a heavy chain of approximately 52 kDa and a catalytic domain of approximately 34 kDa; host or cells: human plasma
T2 sequence (P03952 391-638 limits assumed): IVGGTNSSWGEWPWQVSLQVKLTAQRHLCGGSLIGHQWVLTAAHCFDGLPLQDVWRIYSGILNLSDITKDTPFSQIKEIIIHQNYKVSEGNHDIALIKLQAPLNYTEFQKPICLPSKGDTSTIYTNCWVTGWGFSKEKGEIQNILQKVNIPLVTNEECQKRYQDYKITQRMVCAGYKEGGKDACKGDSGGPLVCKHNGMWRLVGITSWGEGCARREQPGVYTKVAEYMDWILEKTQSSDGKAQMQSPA
T2 sequence (P03952 20-390 partner limits assumed): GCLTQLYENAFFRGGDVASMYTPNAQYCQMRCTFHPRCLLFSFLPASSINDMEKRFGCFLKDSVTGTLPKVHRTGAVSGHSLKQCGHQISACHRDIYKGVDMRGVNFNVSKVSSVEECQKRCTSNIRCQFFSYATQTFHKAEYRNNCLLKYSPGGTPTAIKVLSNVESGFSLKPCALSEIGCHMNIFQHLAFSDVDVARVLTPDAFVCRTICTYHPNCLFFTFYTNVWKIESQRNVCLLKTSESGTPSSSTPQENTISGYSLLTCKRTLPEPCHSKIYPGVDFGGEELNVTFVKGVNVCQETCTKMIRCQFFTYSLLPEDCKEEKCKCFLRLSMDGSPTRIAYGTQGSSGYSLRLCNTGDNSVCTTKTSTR
Excerpt: The inhibition constant (Ki) provides a measure of inhibitor potency; it is the concentration of inhibitor required to reduce enzyme activity by half and is not dependent on enzyme or substrate concentrations. The apparent Ki (Ki,app) is obtained at different substrate concentrations by measuring the inhibitory effect of different concentrations of inhibitor (e.g., inhibitory binding protein) on the extent of the reaction (e.g., enzyme activity); fitting the change in pseudo-first order rate constant as a function of inhibitor concentration to the Morrison equation (Equation 1) yields an estimate of the apparent Ki value. The Ki is obtained from the y-intercept extracted from a linear regression analysis of a plot of Ki,app versus substrate concentration.
Where v=measured velocity; v0=velocity in the absence of inhibitor; Ki,app=apparent inhibition constant; I=total inhibitor concentration; and E=total enzyme concentration.
The sequence of human plasma kallikrein that was used in selections and subsequent screening of binding proteins is shown below (accession number NP_000883.2). The human plasma kallikrein (86 kDa) that was used was purified from human plasma and activated with factor XIIa by a commercial vendor. Factor XIIa activates prekallikrein by cleaving the polypeptide sequence at a single site (between Arg371-Ile372, cleavage site marked by “/” in the sequence below) to generate active plasma kallikrein, which then consists of two disulfide linked polypeptides; a heavy chain of approximately 52 kDa and a catalytic domain of approximately 34 kDa [Colman and Schmaier, (1997) “Contact System: A Vascular Biology Modulator With Anticoagulant, Profibrinolytic, Antiadhesive, and Proinflammatory Attributes” Blood, 90, 3819-3843]
These antibodies were produced as Fab fragments in small scale (˜20 μg) and tested for inhibition against human pKal in an in vitro protease cleavage assay using Pro-Phe-Arg-aminomethylcoumarin as the synthetic peptide substrate. […] Five antibodies were then expressed in 293T cells and purified by protein A sepharose chromatography. The antibodies were analyzed by SDS-PAGE to determine which of the inhibitory mutants are not cleaved by the host cell protease(s) (data not shown).

rat pKal = target: T3, rat pKal (Rattus norvegicus, UniProt P14272); assay: Ki,app against rat pKal; assay type: biochemical; conditions: IgG, Table 14, read-out: < nM Ki, app against rodent pKal
T3 construct: active plasma kallikrein (pkal) has the single polypeptide chain cleaved at a single position
T3 sequence (P14272 391-638 limits assumed): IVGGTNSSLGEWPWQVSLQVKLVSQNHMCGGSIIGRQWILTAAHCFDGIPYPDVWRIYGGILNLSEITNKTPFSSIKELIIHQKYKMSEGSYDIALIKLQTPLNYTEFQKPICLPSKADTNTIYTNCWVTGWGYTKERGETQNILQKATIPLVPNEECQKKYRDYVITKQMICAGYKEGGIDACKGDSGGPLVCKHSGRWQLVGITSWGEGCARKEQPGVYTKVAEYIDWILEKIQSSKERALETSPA
T3 sequence (P14272 20-390 partner limits assumed): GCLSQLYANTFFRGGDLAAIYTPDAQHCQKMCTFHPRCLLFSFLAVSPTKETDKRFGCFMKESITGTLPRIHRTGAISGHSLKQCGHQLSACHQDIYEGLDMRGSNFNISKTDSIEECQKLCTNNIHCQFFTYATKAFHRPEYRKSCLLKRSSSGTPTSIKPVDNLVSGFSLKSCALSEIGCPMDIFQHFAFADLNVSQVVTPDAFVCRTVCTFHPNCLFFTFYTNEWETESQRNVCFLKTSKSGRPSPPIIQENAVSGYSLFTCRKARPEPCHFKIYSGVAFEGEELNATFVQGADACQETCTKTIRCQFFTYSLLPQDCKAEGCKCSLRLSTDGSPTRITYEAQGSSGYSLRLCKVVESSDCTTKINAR
Description: as §1

prekallikrein = prekallikrein (Homo sapiens, UniProt P03952); assay: Surface plasmon resonance (SPR) assay for binding to prekallikrein; conditions: IgG; Table 14
Sequence of prekallikrein (P03952 20-638): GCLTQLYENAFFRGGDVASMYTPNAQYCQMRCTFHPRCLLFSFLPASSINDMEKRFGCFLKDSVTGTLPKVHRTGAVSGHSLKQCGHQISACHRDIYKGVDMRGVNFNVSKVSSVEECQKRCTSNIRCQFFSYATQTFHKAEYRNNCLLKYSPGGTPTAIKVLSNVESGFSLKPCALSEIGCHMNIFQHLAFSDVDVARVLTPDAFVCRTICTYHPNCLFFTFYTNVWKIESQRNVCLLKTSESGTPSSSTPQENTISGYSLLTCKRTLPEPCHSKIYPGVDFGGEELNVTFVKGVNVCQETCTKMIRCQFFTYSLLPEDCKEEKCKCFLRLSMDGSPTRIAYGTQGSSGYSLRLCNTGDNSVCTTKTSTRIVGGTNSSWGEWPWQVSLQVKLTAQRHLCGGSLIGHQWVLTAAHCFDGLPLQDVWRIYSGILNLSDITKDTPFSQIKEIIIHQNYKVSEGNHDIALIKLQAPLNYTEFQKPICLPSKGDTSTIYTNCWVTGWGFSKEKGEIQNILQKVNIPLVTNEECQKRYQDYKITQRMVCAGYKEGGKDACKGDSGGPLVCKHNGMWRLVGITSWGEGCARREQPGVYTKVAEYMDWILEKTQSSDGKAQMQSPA
Description: Antibodies that bound prekallikrein may be rendered inaccessible towards active plasma kallikrein inhibition and could substantially increase the in vivo dose required for efficacy. […] Specifically, human IgGs (X81-B01, M162-A04 (R84-H05); M160-G12 (R84-D02); and M142-H08) were captured on a CM5 chip using an anti-human Fc surface and 100 nM of plasma kallikrein or 100 nM or 500 nM prekallikrein. The prekallikrein was treated with aprotinin-sepharose to remove active plasma kallikrein.

[2] = tested on: fXIa, plasmin, and trypsin; assay: Specificity with respect to other serine proteases; assay type: biochemical; conditions: IgG; Table 14
bradykinin generation = assay: Inhibition of bradykinin generation; assay type: biochemical; conditions: IgG; Table 14
pKal [3] = target: T4, pKal (Homo sapiens, UniProt P03952); assay: Inhibition of pKal in presence of prekallikrein; assay type: biochemical; conditions: IgG; Table 14
T4 construct: two disulfide linked polypeptides; a heavy chain of approximately 52 kDa and a catalytic domain of approximately 34 kDa; host or cells: human plasma
T4 sequence (P03952 391-638 limits assumed): as the sequence (P03952 391-638 limits assumed) above
T4 sequence (P03952 20-390 partner limits assumed): as the sequence (P03952 20-390 partner limits assumed) above

pKal [4] = target: T4, pKal; assay: Competition for binding with aprotinin; conditions: IgG; Table 14
Excerpt: The region of pKal bound by selected anti-pKal antibodies was investigated using several methods. First, competition assays were used to determine whether the antibodies competed for binding to pKal with known active site-directed inhibitors. Second, antibodies were grouped according to whether they were inhibitors or just binders to pKal. Third, epitopes were investigated using synthetic peptides and peptidic structures based on the sequence and 3-dimensional structure of pKal. These peptidic structures are called “CLIPS” (Chemically Linked Peptides on Scaffolds) and the testing was performed by a fee for service company called Pepscan.

pKal [5] = target: T4, pKal; assay: BIACORE SPR competition with EPI-KAL2 for binding pKal; conditions: IgG captured on chip, pKal 100 nM, 1 μM EPI-KAL2
Description: (§2) FIG. 7A depicts the EPI-KAL2 competition for X81-B01 binding pKal. X81-B01 (IgG) was captured on an anti-human Fc fragment specific surface of a CM5 BIACORE® chip. pKal (100 nM) was flowed over the surface in the presence (lower sensorgram in the figure) or absence of 1 μM EPI-KAL2 (upper sensorgram in the figure).
as §2, with “7B” for “7A”, “X67-D03” for “X81-B01”, “Biacore” for “BIACORE®”
Using a BIACORE® SPR assay antibodies of interest were tested for competion with a known active site inhibitor of pKal. EPI-KAL2 is potent (Ki,app=0.1 nM) active site inhibitor of pKal and a Kunitz domain inhibitor based on the first domain of tissue factor pathway inhibitor (Markland (1996) Iterative optimization of high-affinity protease inhibitors using phage display. 2. Plasma kallikrein and thrombin, Biochemistry 35(24):8058-67). Kunitz domains are known active site inhibitors of serine proteases, such as pKal.
As shown in FIGS. 7A-7B, the antibodies X81-B01 and X67-D03 were competed for binding to pKal in the presence or EPI-KAL2.

[6] = tested on: pKal from different species; assay: Kallikrein activity in activated citrated plasma of different species; assay type: biochemical; conditions: all the species except for pig
Excerpt: (§3) All available sequence of pKal were obtained from public databases and aligned using ClustalW and regions were highlighted based on solvent accessibility, contact with an active site Kunitz inhibitor, and those peptides identified by CLIPS analysis (FIGS. 9A-9C). Citrated plasma from each of these species was obtained and activated using a commercially available prekallikrein activator (from Enzyme Research Laboratories) according to the instructions of the manufacturer. Kallikrein activity was then measured in each of the samples in the presence or absence of […]-B01.

pig pKal = assay: Kallikrein activity in activated citrated plasma, pig; assay type: biochemical
Sequence of pig pKal (as listed by the source): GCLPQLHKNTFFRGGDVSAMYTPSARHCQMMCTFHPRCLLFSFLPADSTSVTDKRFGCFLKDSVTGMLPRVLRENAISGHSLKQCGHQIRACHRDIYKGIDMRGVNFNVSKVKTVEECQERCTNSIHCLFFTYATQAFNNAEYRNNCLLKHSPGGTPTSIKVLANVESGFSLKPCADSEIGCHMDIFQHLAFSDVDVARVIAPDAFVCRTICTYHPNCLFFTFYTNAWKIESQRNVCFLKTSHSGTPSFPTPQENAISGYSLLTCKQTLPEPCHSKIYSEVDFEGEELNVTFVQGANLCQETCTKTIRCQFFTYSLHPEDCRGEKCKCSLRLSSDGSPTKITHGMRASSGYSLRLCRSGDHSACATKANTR
Sequence of pig pKal (as listed by the source): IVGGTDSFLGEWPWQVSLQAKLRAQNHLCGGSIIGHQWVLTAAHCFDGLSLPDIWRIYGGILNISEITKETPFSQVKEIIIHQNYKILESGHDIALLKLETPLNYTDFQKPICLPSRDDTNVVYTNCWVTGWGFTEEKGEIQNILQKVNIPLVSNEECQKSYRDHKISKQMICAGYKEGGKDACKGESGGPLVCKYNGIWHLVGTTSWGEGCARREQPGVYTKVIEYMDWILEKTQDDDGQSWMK
Excerpt: as §3

frog pKal = assay: Kallikrein activity in activated citrated plasma, frog; assay type: biochemical
Excerpt: as §3

[7] = target: T2, human plasma kallikrein (human pKal); assay: Ki,app against human pKal by steady state enzyme kinetics (in vitro protease cleavage assay, Pro-Phe-Arg-aminomethylcoumarin substrate); assay type: biochemical; conditions: IgG

mouse Ki, app (nM) (mouse pKal; Table 15): no
B1: M29-D09: antibody inhibitor of pKal; HV-CDR3 GSYDYIWGFYSDH (antibody, V domains shown)
VL: QSALTQPPTVSVSPGQTARITCSGNKLGDKYVAWYQQKPGQSPMLVIYQDTKRPSAIPERFSGSNSANTATLSISGTQALDEADYYCQAWDSSIVIFGGGTRLTVL
VH: EVQLLESGGGLVQPGGSLRLSCAASGFTFSWYTMVWVRQAPGKGLEWVSYIYPSGGATFYADSVKGRFTISRDNSKNTLYLQMNSLRAEDTAVYYCAMGSYDYIWGFYSDHWGQGTLVTVSSASTKGPSVFPLAPSSKS

Ki ([1]; Table 6, read-out: Human pKal (Ki, app nM)): 0.2 nM
Ki ([1]; Table 15, read-out: human Ki, app): 0.1 nM
Ki (mouse pKal; mouse, IgG, Table 14, read-out: < nM Ki, app against rodent pKal): 0.011 nM
Ki (rat pKal): 0.14 nM
Does not bind prekallikrein (prekallikrein): no
Inhibits pKal in presence of prekallikrein (pKal [3]): yes
Competition for binding with aprotinin (pKal [4]): yes
competition for binding to pKal in the presence of EPI-KAL2 (pKal [5]): competed
Ki ([7]; Table 11, read-out: Ki, app): 0.2 nM
Ki ([7]; Table 14, read-out: < nM Ki, app against human pKal): 0.2 nM
Ki ([7]; pKal, germlined and sequence optimized for CHO cell expression, read-out: Ki,app): ~0.2 nM
B2: X81-B01: codon optimized and germlined version of X63-G06 as a full length human IgG produced in CHO cells (antibody, chains of the INN, looked up, V domains shown)
VH: EVQLLESGGGLVQPGGSLRLSCAASGFTFSHYIMMWVRQAPGKGLEWVSGIYSSGGITVYADSVKGRFTISRDNSKNTLYLQMNSLRAEDTAVYYCAYRRIGVPRRDEFDIWGQGTMVTVSS
VL: DIQMTQSPSTLSASVGDRVTITCRASQSISSWLAWYQQKPGKAPKLLIYKASTLESGVPSRFSGSGSGTEFTLTISSLQPDDFATYYCQQYNTYWTFGQGTKVEIK
modifications: IgG
notes: codon optimized and germlined version of X63-G06 as a full length human IgG produced in CHO cells
Specific inhibitor with respect to fXIa, plasmin, and trypsin [2]: yes
Inhibits bradykinin generation (bradykinin generation): yes
inhibition of pKal from different species [6]: inhibited
inhibition of pig pKal (pig pKal): lack of inhibition
inhibition of frog pKal (frog pKal): inhibited
